Usually Ki stands for the dissociation constant of the complex between target and ligand, obtained from inhibition or displacement. Low readings indicate a stronger hold on the target, high ones a looser hold on the target.

Where two headings read alike, the source gives them in different places.

This note sets out measurements from publication PMC3860265 (Journal of molecular biology, 2013).

Test in all cases: kinase competition assay
The target of assay [1] is T1, CLK1 (mouse, UniProt P22518 1-483).
Assay [2] addresses T2, SRPK1 (UniProt Q96SB4 1-655).
Assay [3] has as its target T2, SRPK1. The source holds these as a separate data set.
Assay [4] addresses T2, SRPK1. The source holds these as a separate data set.
Assay [5] concerns the target T1, CLK1. The source holds these as a separate data set.
For assay [6], the target named is T2, SRPK1. This is another data set of the same source.
For assay [7], the target named is T1, CLK1. The source holds these as a separate data set.

T1 sequence (P22518 whole entry): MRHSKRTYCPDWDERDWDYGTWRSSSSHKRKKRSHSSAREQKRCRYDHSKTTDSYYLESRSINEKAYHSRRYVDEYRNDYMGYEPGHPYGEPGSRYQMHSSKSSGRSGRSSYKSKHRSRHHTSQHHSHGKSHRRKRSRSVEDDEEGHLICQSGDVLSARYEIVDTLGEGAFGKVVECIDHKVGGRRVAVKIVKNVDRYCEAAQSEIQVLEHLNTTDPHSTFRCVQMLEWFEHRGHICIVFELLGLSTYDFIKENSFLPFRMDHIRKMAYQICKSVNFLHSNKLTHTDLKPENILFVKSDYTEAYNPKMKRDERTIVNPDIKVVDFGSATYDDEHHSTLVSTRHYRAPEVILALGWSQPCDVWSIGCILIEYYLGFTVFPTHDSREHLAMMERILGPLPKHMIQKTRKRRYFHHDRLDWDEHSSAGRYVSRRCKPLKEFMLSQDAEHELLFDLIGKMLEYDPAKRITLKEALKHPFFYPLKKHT
T2 sequence (Q96SB4 whole entry): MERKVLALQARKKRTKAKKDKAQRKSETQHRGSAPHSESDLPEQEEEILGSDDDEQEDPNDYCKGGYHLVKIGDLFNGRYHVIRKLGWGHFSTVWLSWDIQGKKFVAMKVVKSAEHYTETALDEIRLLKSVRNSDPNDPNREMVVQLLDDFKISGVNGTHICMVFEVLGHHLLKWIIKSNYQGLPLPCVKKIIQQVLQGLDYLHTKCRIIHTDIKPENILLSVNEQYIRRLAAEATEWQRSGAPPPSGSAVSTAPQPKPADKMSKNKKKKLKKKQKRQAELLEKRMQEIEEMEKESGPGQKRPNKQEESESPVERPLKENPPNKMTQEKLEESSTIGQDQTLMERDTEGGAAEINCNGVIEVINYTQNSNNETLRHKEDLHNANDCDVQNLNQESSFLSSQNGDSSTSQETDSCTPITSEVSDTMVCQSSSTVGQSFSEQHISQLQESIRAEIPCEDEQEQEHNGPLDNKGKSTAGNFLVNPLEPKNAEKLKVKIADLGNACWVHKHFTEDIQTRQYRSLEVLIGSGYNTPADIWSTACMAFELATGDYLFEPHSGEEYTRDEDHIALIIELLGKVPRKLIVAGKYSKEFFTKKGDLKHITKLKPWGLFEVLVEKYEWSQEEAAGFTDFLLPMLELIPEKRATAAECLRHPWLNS

B1: SR(188–228) (domain or fragment, UniProt Q07955 188-228, looked up)
chain: AYIRVKVDGPRSPSYGRSRSRSRSRSRSRSRSNSRSRSYSP
As to B1, in the assay with CLK1 [1], the Ki was found to be 240 ± 30 nM and the appKI was 370 ± 40 nM. In addition, in the assay with SRPK1 [2], the inhibition constant (Ki) worked out at 190 ± 30 nM and the appKI is 280 ± 50 nM.

B2: SR(RRM2) (domain or fragment)
chain: NRVVVSGLPPSGSWQDLKDHMREAGDVCYADVYRDGTGVVEFVRKEDMTYAVRKLDNTKFRSHEGETAYIRVKVD
Consider B2, for which affinity with SRPK1 [3] was put at a Ki of 2900 ± 500 nM.

B3: SR(ΔRRM2) (domain or fragment)
chain: MSGGGVIRGPAGNNDCRIYVGNLPPDIRTKDIEDVFYKYGAIRDIDLKNRRGGPPFAFVEFEDPRDAEDAVYGRDGYDYDGYRLRVEFPRSGRGTGRGGGGGGGGGAPRGRYGPPSRRSEGPRSPSYGRSRSRSRSRSRSRSRSNSRSRSYSPRRSRGSPRYSPRHSRSRSRT
Consider B3, for which the inhibition constant (Ki) came to 300 ± 100 nM with SRPK1 [4] and 130 ± 30 nM with CLK1 [5].

B4: SR(188–220) (domain or fragment, UniProt Q07955 188-220, looked up)
chain: AYIRVKVDGPRSPSYGRSRSRSRSRSRSRSRSN
In the assay with CLK1 [1], B4 came in with a Ki of 290 ± 20 nM and an appKI of 440 ± 40 nM. In the assay with SRPK1 [2], this molecule came in with a Ki of 350 ± 200 nM and an appKI of 520 ± 40 nM.

B5: SR(P200,228,235A) (natural protein, UniProt Q07955 1-248, looked up)
chain: MSGGGVIRGPAGNNDCRIYVGNLPPDIRTKDIEDVFYKYGAIRDIDLKNRRGGPPFAFVEFEDPRDAEDAVYGRDGYDYDGYRLRVEFPRSGRGTGRGGGGGGGGGAPRGRYGPPSRRSENRVVVSGLPPSGSWQDLKDHMREAGDVCYADVYRDGTGVVEFVRKEDMTYAVRKLDNTKFRSHEGETAYIRVKVDGPRSASYGRSRSRSRSRSRSRSRSNSRSRSYSARRSRGSARYSPRHSRSRSRT
As for B5, in the assay with SRPK1 [6], the affinity, expressed as Ki, was 33 ± 3 nM and the appKI came out at 80 ± 8 nM. In the assay with CLK1 [7], the affinity, expressed as Ki, was 130 ± 20 nM and the appKI worked out at 440 ± 70 nM.

B6: SR(188–235) (domain or fragment, UniProt Q07955 188-235, looked up)
chain: AYIRVKVDGPRSPSYGRSRSRSRSRSRSRSRSNSRSRSYSPRRSRGSP
Turning to B6, in the assay with CLK1 [1], the Ki worked out at 120 ± 10 nM and the appKI was 180 ± 20 nM. Besides, in the assay with SRPK1 [2], the affinity, expressed as Ki, was 110 ± 7 nM and the appKI was 170 ± 10 nM.

B7: SR(RRM1-2) (domain or fragment)
chain: MSGGGVIRGPAGNNDCRIYVGNLPPDIRTKDIEDVFYKYGAIRDIDLKNRRGGPPFAFVEFEDPRDAEDAVYGRDGYDYDGYRLRVEFPRSGRGTGRGGGGGGGGGAPRGRYGPPSRRSENRVVVSGLPPSGSWQDLKDHMREAGDVCYADVYRDGTGVVEFVRKEDMTYAVRKLDNTKFRSHEGETAYIRVKVD
Take B7: in the assay with SRPK1 [3], affinity was put at a Ki of 170 ± 30 nM.
